Reference: the supplement of paper PMC10065799, “High-throughput profiling of sequence recognition by tyrosine kinases and SH2 domains using bacterial peptide display” (eLife, 2023)

system: c-Src; test: phosphorylation enrichment, bacterial display (enrichment ratio); higher = better substrate or ligand; peptides without Tyr show the background
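For SH2 binding enrichment of the phosphorylated peptide, bacterial display in this document: peptide library displayed on the E. coli surface as eCPX fusions, selected cells deep-sequenced, score is each peptide's frequency after selection divided by its frequency in the input.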
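For phosphorylation enrichment, bacterial display in this document: 11-residue human phosphosite peptides and single-mutation variants displayed on the E. coli surface, counted by deep sequencing, each peptide's frequency after selection divided by its frequency in the unselected input library; frequency after pTyr selection over input frequency; kinase dosed for 20-30% of maximal phosphorylation in three min.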

Row | Sequence | phosphorylation enrichment
1 | KQQEIYQEVTQ [CD209_Y239_L242V] | 5.15
2 | YEPDAYYDLDQ [ELP5_Y302_D303Y] | 2.06
3 | CPEASYNRSPI [PTAR1_Y42_R41S] | 0.528
4 | FKTPIYPFLLP [PLD2_Y578_T577I_YF] | 0.559
5 | EEQKKNYNAMK [SCN5A_Y1494_Y1494N] | 0.415
6 | RYVVLYDAELT [ERCC4_Y581] | 0.605
7 | FSLIHYARIVD [MYH7_Y582_G584R] | 0.426
8 | MVSLFYGTALF [OR10C1_Y251] | 2.44
9 | TRDVNYGWIIH [MT-CYB_Y75_R80H] | 0.524
10 | FMMMRYSQNVR [SDAD1_Y656] | 0.365
11 | REEKNDKLKET [BCLAF1_Y459_Y459D] | 0.356
12 | FFPANYVAPMT [GRAP2_Y324_L319F] | 0.449
13 | SDGHEYIYVDR [PDGFRB_Y579_P584R] | 1.6
14 | LLREWYMIFSR [HUWE1_Y4066_I4069F] | 1.45
15 | KHMADYPDCKF [SOX11_Y113_Y116C_YF] | 0.397
16 | FLQEIHNSNNQ [FGG_Y140_Y140H_YF] | 0.391
17 | WASGIYYVPKG [APBB1IP_Y340_R335W] | 6.92

Row | Sequence | phosphorylation enrichment
18 | NDFGNYNNQSS [HNRNPA1_Y318] | 0.343
19 | FMIISYVLIIR [OR1D2_Y218_V214M] | 0.437
20 | ISKILYHIIKG [CDH17_Y489_S484I] | 0.551
21 | GLIPAYHRVIV [NMNAT1_Y64_M69V] | 0.371
22 | SSGSRYQPLAS [NCAPD2_Y1325_T1321S] | 0.453
23 | DRVALYIAREG [AACS_Y117] | 0.432
24 | FTGSTYRVGDT [FN1_Y106_N104S_YF] | 0.484
25 | EALDFYGEVRT [PTEN_Y155] | 1.01
26 | RDWSHYFKIIE [KRT18_Y129] | 0.705
27 | WQQQSYLDSRI [CTNNB1_Y30_G34R] | 0.4
28 | HSDDDYDDPEL [CLNK_Y69] | 0.753
29 | DFNPNYCFAGK [ALK_Y1096_YF] | 0.684
30 | FKGIVYAVSSD [DCX_Y70] | 0.49
31 | HKANEYFPVVL [ADAMTS18_Y764_YF] | 0.556
32 | QGLRLYRAHLA [BTK_Y617_P619A] | 0.523
33 | MYRVQYNSSVD [LRFN1_Y458_Q455R] | 0.411

target: Grb2 SH2 (UniProt P62993); test: SH2 binding enrichment of the phosphorylated peptide, bacterial display (enrichment ratio); higher = better substrate or ligand; peptides without Tyr show the background

Row | SH2 binding enrichment | Sequence
34 | 0.763 | CPEASYNRSPI [PTAR1_Y42_R41S]
35 | 1.12 | FSLIHYARIVD [MYH7_Y582_G584R]
36 | 0.814 | FFPANYVAPMT [GRAP2_Y324_L319F]
37 | 1.21 | LLREWYMIFSR [HUWE1_Y4066_I4069F]
38 | 1.18 | KHMADYPDCKF [SOX11_Y113_Y116C_YF]
39 | 0.826 | NDFGNYNNQSS [HNRNPA1_Y318]
40 | 0.987 | GLIPAYHRVIV [NMNAT1_Y64_M69V]
41 | 0.977 | SSGSRYQPLAS [NCAPD2_Y1325_T1321S]
42 | 0.894 | WQQQSYLDSRI [CTNNB1_Y30_G34R]
43 | 0.779 | HSDDDYDDPEL [CLNK_Y69]
44 | 0.792 | DFNPNYCFAGK [ALK_Y1096_YF]
45 | 0.809 | FKGIVYAVSSD [DCX_Y70]
46 | 0.963 | HKANEYFPVVL [ADAMTS18_Y764_YF]
47 | 1.38 | QGLRLYRAHLA [BTK_Y617_P619A]

Second part, the sequence before the results:

Row | Sequence | SH2 binding enrichment
48 | KQQEIYQEVTQ [CD209_Y239_L242V] | 0.929
49 | YEPDAYYDLDQ [ELP5_Y302_D303Y] | 0.807
50 | FKTPIYPFLLP [PLD2_Y578_T577I_YF] | 1.14
51 | EEQKKNYNAMK [SCN5A_Y1494_Y1494N] | 0.815
52 | RYVVLYDAELT [ERCC4_Y581] | 1.47
53 | MVSLFYGTALF [OR10C1_Y251] | 0.865
54 | TRDVNYGWIIH [MT-CYB_Y75_R80H] | 0.99
55 | FMMMRYSQNVR [SDAD1_Y656] | 1.52
56 | REEKNDKLKET [BCLAF1_Y459_Y459D] | 1.16
57 | SDGHEYIYVDR [PDGFRB_Y579_P584R] | 0.9
58 | FLQEIHNSNNQ [FGG_Y140_Y140H_YF] | 0.71
59 | WASGIYYVPKG [APBB1IP_Y340_R335W] | 1.21
60 | FMIISYVLIIR [OR1D2_Y218_V214M] | 2.38
61 | ISKILYHIIKG [CDH17_Y489_S484I] | 1.75
62 | DRVALYIAREG [AACS_Y117] | 0.896
63 | FTGSTYRVGDT [FN1_Y106_N104S_YF] | 0.731
64 | EALDFYGEVRT [PTEN_Y155] | 0.635
65 | RDWSHYFKIIE [KRT18_Y129] | 0.776
66 | MYRVQYNSSVD [LRFN1_Y458_Q455R] | 0.659

target: SHP2-C SH2; test: as above

Row | SH2 binding enrichment | Sequence
67 | 0.588 | CPEASYNRSPI [PTAR1_Y42_R41S]
68 | 26.8 | FSLIHYARIVD [MYH7_Y582_G584R]
69 | 0.883 | FFPANYVAPMT [GRAP2_Y324_L319F]
70 | 1.05 | LLREWYMIFSR [HUWE1_Y4066_I4069F]
71 | 0.859 | KHMADYPDCKF [SOX11_Y113_Y116C_YF]
72 | 0.68 | NDFGNYNNQSS [HNRNPA1_Y318]
73 | 0.957 | GLIPAYHRVIV [NMNAT1_Y64_M69V]
74 | 0.843 | SSGSRYQPLAS [NCAPD2_Y1325_T1321S]
75 | 0.645 | WQQQSYLDSRI [CTNNB1_Y30_G34R]
76 | 0.829 | HSDDDYDDPEL [CLNK_Y69]
77 | 0.625 | DFNPNYCFAGK [ALK_Y1096_YF]
78 | 0.825 | FKGIVYAVSSD [DCX_Y70]
79 | 0.53 | HKANEYFPVVL [ADAMTS18_Y764_YF]
80 | 1.61 | QGLRLYRAHLA [BTK_Y617_P619A]

Continued, sequence first:

Row | Sequence | SH2 binding enrichment
81 | KQQEIYQEVTQ [CD209_Y239_L242V] | 0.785
82 | YEPDAYYDLDQ [ELP5_Y302_D303Y] | 0.626
83 | FKTPIYPFLLP [PLD2_Y578_T577I_YF] | 0.892
84 | EEQKKNYNAMK [SCN5A_Y1494_Y1494N] | 0.595
85 | RYVVLYDAELT [ERCC4_Y581] | 7.24
86 | MVSLFYGTALF [OR10C1_Y251] | 0.778
87 | TRDVNYGWIIH [MT-CYB_Y75_R80H] | 1.23
88 | FMMMRYSQNVR [SDAD1_Y656] | 1.43
89 | REEKNDKLKET [BCLAF1_Y459_Y459D] | 0.747
90 | SDGHEYIYVDR [PDGFRB_Y579_P584R] | 0.579
91 | FLQEIHNSNNQ [FGG_Y140_Y140H_YF] | 0.867
92 | WASGIYYVPKG [APBB1IP_Y340_R335W] | 0.959
93 | FMIISYVLIIR [OR1D2_Y218_V214M] | 1.52
94 | ISKILYHIIKG [CDH17_Y489_S484I] | 2
95 | DRVALYIAREG [AACS_Y117] | 0.928
96 | FTGSTYRVGDT [FN1_Y106_N104S_YF] | 0.482
97 | EALDFYGEVRT [PTEN_Y155] | 0.643
98 | RDWSHYFKIIE [KRT18_Y129] | 0.436
99 | MYRVQYNSSVD [LRFN1_Y458_Q455R] | 0.869

target: c-Src SH2; test: as above

Row | SH2 binding enrichment | Sequence
100 | 0.471 | CPEASYNRSPI [PTAR1_Y42_R41S]
101 | 4.46 | FSLIHYARIVD [MYH7_Y582_G584R]
102 | 0.6 | FFPANYVAPMT [GRAP2_Y324_L319F]
103 | 0.852 | LLREWYMIFSR [HUWE1_Y4066_I4069F]
104 | 0.573 | KHMADYPDCKF [SOX11_Y113_Y116C_YF]
105 | 0.537 | NDFGNYNNQSS [HNRNPA1_Y318]
106 | 1.26 | GLIPAYHRVIV [NMNAT1_Y64_M69V]
107 | 0.583 | SSGSRYQPLAS [NCAPD2_Y1325_T1321S]
108 | 0.571 | WQQQSYLDSRI [CTNNB1_Y30_G34R]
109 | 0.607 | HSDDDYDDPEL [CLNK_Y69]
110 | 0.533 | DFNPNYCFAGK [ALK_Y1096_YF]
111 | 0.535 | FKGIVYAVSSD [DCX_Y70]
112 | 0.462 | HKANEYFPVVL [ADAMTS18_Y764_YF]
113 | 1.21 | QGLRLYRAHLA [BTK_Y617_P619A]

Continued, sequence first:

Row | Sequence | SH2 binding enrichment
114 | KQQEIYQEVTQ [CD209_Y239_L242V] | 0.513
115 | YEPDAYYDLDQ [ELP5_Y302_D303Y] | 1.88
116 | FKTPIYPFLLP [PLD2_Y578_T577I_YF] | 0.825
117 | EEQKKNYNAMK [SCN5A_Y1494_Y1494N] | 0.443
118 | RYVVLYDAELT [ERCC4_Y581] | 6.75
119 | MVSLFYGTALF [OR10C1_Y251] | 0.431
120 | TRDVNYGWIIH [MT-CYB_Y75_R80H] | 0.522
121 | FMMMRYSQNVR [SDAD1_Y656] | 1.03
122 | REEKNDKLKET [BCLAF1_Y459_Y459D] | 0.552
123 | SDGHEYIYVDR [PDGFRB_Y579_P584R] | 0.712
124 | FLQEIHNSNNQ [FGG_Y140_Y140H_YF] | 0.416
125 | WASGIYYVPKG [APBB1IP_Y340_R335W] | 0.883
126 | FMIISYVLIIR [OR1D2_Y218_V214M] | 1.38
127 | ISKILYHIIKG [CDH17_Y489_S484I] | 3.02
128 | DRVALYIAREG [AACS_Y117] | 0.487
129 | FTGSTYRVGDT [FN1_Y106_N104S_YF] | 0.443
130 | EALDFYGEVRT [PTEN_Y155] | 0.458
131 | RDWSHYFKIIE [KRT18_Y129] | 0.479
132 | MYRVQYNSSVD [LRFN1_Y458_Q455R] | 0.613
